From publication PMC11960800 (The FASEB Journal, 2025)
Values belong to the molecule of their own block, whether it stands above or below them.

Tests used:
Assay in all cases: SPR
[1] = molecular target: latent TGF‐β binding protein‐4, short isoform (LTBP4S), recombinant full-length human (human)
[2] = molecular target: T1, fibulin‐4 (FBLN4), recombinant full-length human (human, UniProt O95967 24-443)
T1 sequence (looked up): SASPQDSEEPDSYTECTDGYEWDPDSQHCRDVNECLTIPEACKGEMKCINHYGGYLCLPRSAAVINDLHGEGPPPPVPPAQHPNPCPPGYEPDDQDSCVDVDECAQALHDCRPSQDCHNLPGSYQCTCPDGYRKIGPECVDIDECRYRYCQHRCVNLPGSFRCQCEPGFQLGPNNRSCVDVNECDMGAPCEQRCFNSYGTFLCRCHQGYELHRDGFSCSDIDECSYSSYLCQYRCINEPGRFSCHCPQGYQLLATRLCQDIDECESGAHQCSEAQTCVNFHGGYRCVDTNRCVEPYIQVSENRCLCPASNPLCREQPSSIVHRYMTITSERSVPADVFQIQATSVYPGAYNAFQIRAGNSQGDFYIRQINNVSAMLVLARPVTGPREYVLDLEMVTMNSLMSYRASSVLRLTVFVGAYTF

[3] = molecular target: latent TGF‐β binding protein‐4, long isoform (LTBP4L), recombinant full-length human (human, UniProt Q8N2S1-1 28-1624)

- koff [1]: 6.3e-05 s⁻¹
Molecule: recombinant syndecan-3 ectodomain (SDC3‐ED) (from UniProt O75056 48-387) (domain or fragment)

- koff [2]: 0.00041 s⁻¹
B1: recombinant syndecan-2 ectodomain (SDC2‐ED) (domain or fragment, human, UniProt P34741 19-144, looked up)
chain: ESRAELTSDKDMYLDNSSIEEASGVYPIDDDDYASASGSGADEDVESPELTTSRPLPKILLTSAAPKVETTTLNIQNKIPAQTKSPEETDKEKVHLSDSERKMDPAEEDTNVYTEKHSDSLFKRTE

- koff [3]: 5.5e-05 s⁻¹
- koff [2]: 0.00082 s⁻¹
B2: recombinant syndecan-3 ectodomain (SDC3‐ED) (domain or fragment, human, UniProt O75056 48-387, looked up)
chain: QRWRSENFERPVDLEGSGDDDSFPDDELDDLYSGSGSGYFEQESGIETAMRFSPDVALAVSTTPAVLPTTNIQPVGTPFEELPSERPTLEPATSPLVVTEVPEEPSQRATTVSTTMATTAATSTGDPTVATVPATVATATPSTPAAPPFTATTAVIRTTGVRRLLPLPLTTVATARATTPEAPSPPTTAAVLDTEAPTPRLVSTATSRPRALPRPATTQEPDIPERSTLPLGTTAPGPTEVAQTPTPETFLTTIRDEPEVPVSGGPSGDFELPEEETTQPDTANEVVAVGGAAAKASSPPGTLPKGARPGPGLLDNAIDSGSSAAQLPQKSILERKEVLV
